Source: patent US20230322950A1
Each block holds one substance with its values, some of them ahead of it.

Legend:
[1] = biological target: VH1VL1-CD8ATD-CD137CSD-CD3zSSD fusion
[2] = biological target: VL1VH3-CD8ATD-CD137CSD-CD3zSSD fusion
[3] = biological target: VH3VL1-CD8ATD-CD137CSD-CD3zSSD fusion
[4] = biological target: VH2VL1-CD8ATD-CD137CSD-CD3zSSD fusion
[5] = biological target: VL1VH3-CD8ATD-CD137CSD-CD3zSSD fusion; remark: listed apart in the source
[6] = biological target: VH2VL1-CD8ATD-CD137CSD-CD3zSSD fusion; remark: listed apart in the source
[7] = biological target: VH1VL1-CD8ATD-CD137CSD-CD3zSSD fusion; remark: listed apart in the source
[8] = biological target: VL1VH3-CD8ATD-CD137CSD-CD3zSSD fusion; remark: listed apart in the source
[9] = biological target: VH3VL1-CD8ATD-CD137CSD-CD3zSSD fusion; remark: listed apart in the source
[10] = biological target: VH2VL1-CD8ATD-CD137CSD-CD3zSSD fusion; remark: listed apart in the source

Sequence of VL1VH3-CD8ATD-CD137CSD-CD3zSSD fusion (chain, as listed by the source): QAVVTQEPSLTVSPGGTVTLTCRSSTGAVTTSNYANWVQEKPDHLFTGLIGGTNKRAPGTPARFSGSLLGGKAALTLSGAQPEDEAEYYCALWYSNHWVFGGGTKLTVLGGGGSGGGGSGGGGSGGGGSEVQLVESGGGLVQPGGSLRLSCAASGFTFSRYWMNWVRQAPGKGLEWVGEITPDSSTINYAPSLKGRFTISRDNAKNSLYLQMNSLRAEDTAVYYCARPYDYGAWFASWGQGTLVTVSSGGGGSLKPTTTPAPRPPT
Sequence of VH2VL1-CD8ATD-CD137CSD-CD3zSSD fusion (chain, as listed by the source): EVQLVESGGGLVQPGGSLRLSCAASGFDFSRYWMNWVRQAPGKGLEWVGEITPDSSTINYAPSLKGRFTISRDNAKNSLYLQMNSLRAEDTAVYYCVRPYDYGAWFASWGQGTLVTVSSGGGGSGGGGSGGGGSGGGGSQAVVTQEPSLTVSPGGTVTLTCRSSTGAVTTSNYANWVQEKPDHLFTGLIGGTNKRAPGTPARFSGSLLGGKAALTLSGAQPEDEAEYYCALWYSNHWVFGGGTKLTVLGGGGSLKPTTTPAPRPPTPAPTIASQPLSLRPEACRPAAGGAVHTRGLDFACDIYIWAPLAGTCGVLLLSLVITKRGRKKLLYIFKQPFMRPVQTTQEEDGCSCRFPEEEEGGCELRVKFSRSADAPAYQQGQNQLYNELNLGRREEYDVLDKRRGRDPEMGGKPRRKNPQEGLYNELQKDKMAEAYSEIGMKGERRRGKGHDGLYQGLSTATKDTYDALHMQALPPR
Sequence of VH3VL1-CD8ATD-CD137CSD-CD3zSSD fusion (chain, as listed by the source): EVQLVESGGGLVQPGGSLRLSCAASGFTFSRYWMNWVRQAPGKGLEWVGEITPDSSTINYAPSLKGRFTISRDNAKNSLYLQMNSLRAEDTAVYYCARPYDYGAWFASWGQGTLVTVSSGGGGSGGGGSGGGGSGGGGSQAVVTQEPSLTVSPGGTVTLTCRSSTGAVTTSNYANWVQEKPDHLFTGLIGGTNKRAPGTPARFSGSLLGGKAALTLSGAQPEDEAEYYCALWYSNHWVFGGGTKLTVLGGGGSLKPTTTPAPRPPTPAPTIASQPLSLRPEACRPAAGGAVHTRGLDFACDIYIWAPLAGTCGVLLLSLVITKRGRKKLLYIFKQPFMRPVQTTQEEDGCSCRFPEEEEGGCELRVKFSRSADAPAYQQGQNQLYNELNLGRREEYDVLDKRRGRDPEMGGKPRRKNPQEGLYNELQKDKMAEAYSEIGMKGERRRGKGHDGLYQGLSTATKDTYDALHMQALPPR
Sequence of VH1VL1-CD8ATD-CD137CSD-CD3zSSD fusion (chain, as listed by the source): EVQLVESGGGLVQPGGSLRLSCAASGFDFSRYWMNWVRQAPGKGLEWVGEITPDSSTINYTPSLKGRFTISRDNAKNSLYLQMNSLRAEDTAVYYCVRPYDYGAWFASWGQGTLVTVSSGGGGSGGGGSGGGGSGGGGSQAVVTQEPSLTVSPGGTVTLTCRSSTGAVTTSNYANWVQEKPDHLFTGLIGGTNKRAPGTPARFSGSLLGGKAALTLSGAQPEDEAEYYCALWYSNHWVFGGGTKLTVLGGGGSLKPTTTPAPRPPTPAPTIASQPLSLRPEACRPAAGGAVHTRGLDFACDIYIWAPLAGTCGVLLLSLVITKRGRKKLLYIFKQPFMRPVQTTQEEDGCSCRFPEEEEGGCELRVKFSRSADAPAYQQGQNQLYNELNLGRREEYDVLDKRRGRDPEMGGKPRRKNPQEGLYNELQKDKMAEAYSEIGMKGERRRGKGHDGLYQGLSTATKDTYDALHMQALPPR

EC50 of Jurkat NFAT luciferase reporter activation (RLU/s), WSUDLCL2 target cells 5:1; drawn table, row 'VH1 x VL1' [1]: 8.1 pM
EC50 of Jurkat NFAT luciferase reporter activation (RLU/s), WSUDLCL2 target cells 5:1; drawn table, row 'VL1 x VH 3' [2]: 6.58 pM
EC50 of Jurkat NFAT luciferase reporter activation (RLU/s), WSUDLCL2 target cells 5:1; drawn table, row 'VH3 x VL1' [3]: 7.57 pM
EC50 of Jurkat NFAT luciferase reporter activation (RLU/s), WSUDLCL2 target cells 5:1; drawn table, row 'VH2 x VL1' [4]: 6.93 pM
Substance: anti-CD20 (GA101) P329G LALA IgG1 (antibody)

EC50 printed in the drawn table (row 'VL1 x VH 3') for the Jurkat NFAT reporter assay with WSUDLCL2 cells and untargeted DP47 P329G LALA; the curve stays near background (about 60 to 110 RLU/s) [5]: 7420 pM
EC50 printed in the drawn table (row 'VH2 x VL1') for the Jurkat NFAT reporter assay with WSUDLCL2 cells and untargeted DP47 P329G LALA; the curve stays at background (about 60 to 90 RLU/s) [6]: 293 pM
Substance: DP47 P329G LALA (antibody)

EC50 of Jurkat NFAT luciferase reporter activation (RLU/s), WSUDLCL2 target cells 5:1; drawn table, row 'VH1 x VL1'; x axis 'GA101 D246A P329G [nM]' [7]: 0.00814 nM
EC50 of Jurkat NFAT luciferase reporter activation (RLU/s), WSUDLCL2 target cells 5:1; drawn table, row 'VL1 x VH 3'; x axis 'GA101 D246A P329G [nM]' [8]: 0.00619 nM
EC50 of Jurkat NFAT luciferase reporter activation (RLU/s), WSUDLCL2 target cells 5:1; drawn table, row 'VH3 x VL1'; x axis 'GA101 D246A P329G [nM]' [9]: 0.00582 nM
EC50 of Jurkat NFAT luciferase reporter activation (RLU/s), WSUDLCL2 target cells 5:1; drawn table, row 'VH2 x VL1'; x axis 'GA101 D246A P329G [nM]' [10]: 0.0104 nM
Substance: anti-CD20 (GA101) D246A P329G IgG1 (antibody)
